Target: the molecule itself
Experiment: western blot after SDS-PAGE under reducing and non-reducing conditions; isolated specific granules of human neutrophils, blotted with anti-OLFM4 clone #49; 12% polyacrylamide gels

B1: Olfactomedin 4 (OLFM4) (natural protein)
chain: not shown
modifications: highly glycosylated (sites not given); intermolecular disulphide bonds (cysteines not given)
notes: Olfactomedin 4, human, native protein from specific granules of neutrophils; 72 kD under reducing conditions; Multimer of unstated size; also called hGC-1; GW112
Question: Does B1 bind?
Answer: Result: binds

— publication PMC4687705, “Plasma levels of OLFM4 in normals and patients with gastrointestinal cancer” (Journal of Cellular and Molecular Medicine, 2015)
